From paper PMC7099567, “Enzymatic Synthesis of 2-Keto-3-Deoxy-6-Phosphogluconate by the 6-Phosphogluconate-Dehydratase From Caulobacter crescentus” (Frontiers in Bioengineering and Biotechnology, 2020)

What was measured:
[1] = substrate: O=C(O)[C@H](O)[C@@H](O)[C@H](O)[C@H](O)COP(=O)(O)O; assay: purified protein; type: biochemical, Caulobacter vibrioides; settings: 100 mM HEPES pH 8.0, 37 C, 0.2 mM NADH, enzyme purified and stored with 5 mM MnCl2
[2] = biological target: the molecule itself; assay: SEC; HiLoad 26/60 Superdex 200 prep grade; buffer C (50 mM HEPES/KOH, 300 mM NaCl, 5 mM MnCl, pH 8); isocratic flow 2 ml min^-1; native mass compared with the subunit mass from SDS-PAGE

B1: 6-phosphogluconate dehydratase/Entner-Doudoroff dehydratase (EDD) from Caulobacter crescentus (enzyme, UniProt A0A0H3CB86 1-602, looked up)
chain: MSLNPVIADVTARIVARSKDSRAAYLANMDRAIENQPGRAKLSCANWAHAFAASPGVDKLRALDPNAPNIGIVSAYNDMLSAHQPLEAYPALIKDAARDVGATAQFAGGVPAMCDGVTQGRPGMELSLFSRDVIAMATAVALTHDAFDSALYLGVCDKIVPGLVIGALTFSHLPALFVPAGPMTSGLPNSEKARIRALYAEGKVGREELLAAESASYHGPGTCTFYGTANTNQMLMELMGFHLPGSAFVHPNTPLREALVKESARRVAAVTNKGNEFIPVGRMIDEKSFVNGVVGLMATGGSTNLALHIIAMAAAAGVQLTLEDLDDISKATPLLARVYPNGSADVNHFQAAGGMAFVIRELLKAGLVHEDVQTIAGAGLSLYAKEPVLEDGMLTWRDGAHESLDPAIVRPVSDPFSKEGGLRLMAGNLGRGVMKISAVKPEHHVIEAPCAVFQEQEDFIAAFKRGELDRDVVVVVRFQGPSANGMPELHNLSPSISVLLDRGHKVALVTDGRMSGASGKTPAAIHVTPEAAKGGPLAYVQDGDVIRVNAETGELKIMVDEATLLARTPANVPASKPGFGRELFGWMRSGVGAADAGASVFA
notes: Homodimer by size exclusion chromatography (130 kDa native, 63.2 kDa by SDS-PAGE); also called CcEDD; 6PG dehydratase; source: E. coli BL21 (DE3), pET15b, purified (Ni-TED)
In the case of B1, the Km [1] is reported as 300 µM and the “stoichiometry N” value [2] is reported as 2.
